{"source": "patent US8466107B2", "about": "“Fibrin-binding peptides and conjugates thereof” (Bracco Imaging SpA, priority 2006, dated 2013)", "target": "T1, human clots (Homo sapiens, UniProt P02671+P02675+P02679)", "T1 construct": "Small plasma clots from different species (human, guinea pig and mouse); tissue Dade Behring; host or cells: pooled human plasma (Control Plasma N), clotted with Pathromtin SL and CaCl2", "T1 sequence (P02671 36-629 limits assumed)": "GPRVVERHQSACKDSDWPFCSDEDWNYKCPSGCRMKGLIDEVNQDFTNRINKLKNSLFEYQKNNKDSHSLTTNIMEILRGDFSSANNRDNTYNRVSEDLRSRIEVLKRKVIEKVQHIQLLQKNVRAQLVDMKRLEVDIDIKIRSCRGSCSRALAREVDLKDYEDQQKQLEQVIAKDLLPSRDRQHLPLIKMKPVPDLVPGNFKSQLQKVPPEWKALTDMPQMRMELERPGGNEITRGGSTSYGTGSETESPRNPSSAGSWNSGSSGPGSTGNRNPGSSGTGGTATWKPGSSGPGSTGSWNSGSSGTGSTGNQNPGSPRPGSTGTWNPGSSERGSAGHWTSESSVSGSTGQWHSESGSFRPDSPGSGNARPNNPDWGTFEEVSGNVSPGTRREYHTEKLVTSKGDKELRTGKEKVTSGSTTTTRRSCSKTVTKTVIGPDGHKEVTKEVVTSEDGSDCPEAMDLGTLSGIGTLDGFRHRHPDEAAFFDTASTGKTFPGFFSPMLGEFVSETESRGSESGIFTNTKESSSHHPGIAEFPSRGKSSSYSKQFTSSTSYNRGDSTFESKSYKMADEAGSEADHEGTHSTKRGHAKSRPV", "T1 sequence (P02675 45-491 limits assumed)": "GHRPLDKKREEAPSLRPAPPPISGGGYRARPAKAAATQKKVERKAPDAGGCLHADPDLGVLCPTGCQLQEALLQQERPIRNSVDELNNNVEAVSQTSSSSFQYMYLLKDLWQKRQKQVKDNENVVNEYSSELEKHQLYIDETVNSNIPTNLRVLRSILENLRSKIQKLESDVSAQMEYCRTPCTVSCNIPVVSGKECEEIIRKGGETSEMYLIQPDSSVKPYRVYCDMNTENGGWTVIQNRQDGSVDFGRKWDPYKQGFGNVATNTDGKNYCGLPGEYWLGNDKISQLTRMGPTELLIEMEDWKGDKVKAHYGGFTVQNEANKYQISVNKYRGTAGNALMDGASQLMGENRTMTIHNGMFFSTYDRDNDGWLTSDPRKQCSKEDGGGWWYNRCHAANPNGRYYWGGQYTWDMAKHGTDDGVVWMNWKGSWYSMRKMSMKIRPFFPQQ", "T1 sequence (P02679 27-437 isoform P02679-2 limits assumed)": "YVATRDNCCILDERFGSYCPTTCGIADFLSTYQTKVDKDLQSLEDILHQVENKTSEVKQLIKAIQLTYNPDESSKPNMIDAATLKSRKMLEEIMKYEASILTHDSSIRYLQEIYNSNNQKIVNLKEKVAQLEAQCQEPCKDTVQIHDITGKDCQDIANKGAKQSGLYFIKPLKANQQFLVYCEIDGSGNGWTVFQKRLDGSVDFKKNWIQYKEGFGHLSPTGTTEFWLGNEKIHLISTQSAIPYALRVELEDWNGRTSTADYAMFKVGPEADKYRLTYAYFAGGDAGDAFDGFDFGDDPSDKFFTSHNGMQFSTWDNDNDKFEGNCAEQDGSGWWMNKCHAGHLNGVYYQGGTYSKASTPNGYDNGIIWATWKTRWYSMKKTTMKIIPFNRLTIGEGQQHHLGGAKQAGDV", "experiment": "In vitro MRI test of signal enhancement in plasma clots incubated with contrast agents", "format": "binding", "description": "Small plasma clots from different species (human, guinea pig and mouse) ranging from 0.5-7 mm in diameter were formed by combining citrate plasma (1:3,v/v) phospholipids (Reagent Pathromtin) and CaCl2 0.008 M (Dade Behring, Germany) into small 2 ml vials at 37° C. Clots were washed 3 times with TBS 1× and incubated with contrast agents at 100 μM for 30 minutes at 37° C. Two clots were prepared for each solution of incubation. After the incubation clots were washed 4 times with TBS 1× and placed into small vials filled with TBS 1× for MRI analysis. T1-weighted 2D Spin-Echo (SE) images were acquired with the following parameters: TR/TE=400/8 ms, spatial resolution=344 μm and slice thickness=2 mm. Maximum signal intensity was measured in each image containing clot and compared to the signal from a clots incubated in TBS. […]\nThis protocol has been developed and used to test the specificity and efficiency of the fibrin targeted contrast agents of the invention for sensitive detection of thrombus by use of MRI. […] Signal enhancement from each sample incubated with the fibrin targeted contrast agent was evaluated and compared to a standard contrast agent ProHance®. […]\nHigh resolution MRI was then performed by using T1-weighted Spin-Echo (SE) sequences. T1 maps were also calculated from the acquisition of 2D gradient echo images or inversion recovery spin echo images. […]", "note": "Bridge positions count the residues as written; N and C are the ends.", "data": [{"substance": "Chelated Complex 1: Gd chelated complex (four DTPA-Glu units on branched lysine linker) conjugated to the fibrin-binding peptide; MRI contrast agent (Ac-WQPCPAESWTFCWDPGGGK-NH2; disulfide 4-12; not fully specified (some residues); also: further groups not given here)", "values": [{"measurement": "Max signal Enhancement at 100 μM", "setting": "human clots incubated with 100 μM complex, 30 minutes at 37° C., T1-weighted spin-echo MRI at 2T", "value": 100, "unit": "%"}, {"measurement": "signal enhancement in clots, ranking of tested compounds", "setting": "human clots, 100 μM concentration", "value": "maximum signal enhancement"}]}]}
